# B1: CAR.hYP7 (GPC3-targeted chimeric antigen receptor with humanized YP7 scFv, CD8α hinge and TM, 4-1BB, CD3ζ) (protein)
# chain: HMEVQLVESGGGLVQPGGSLRLSCAASGFTFNKNAMNWVRQAPGKGLEWVGRIRNKTNNYATYYADSVKARFTISRDDSKNSLYLQMNSLKTEDTAVYYCVAGNSFAYWGQGTLVTVSAGGGGSGGGGSGGGGSDIVMTQSPDSLAVSLGERATINCKSSQSLLYSSNQKNYLAWYQQKPGQPPKLLIYWASSRESGVPDRFSGSGSGTDFTLTISSLQAEDVAVYYCQQYYNYPLTFGQGTKLEIKTSTTTPAPRPPTPAPTIASQPLSLRPEACRPAAGGAVHTRGLDFACDIYIWAPLAGTCGVLLLSLVITKRGRKKLLYIFKQPFMRPVQTTQEEDGCSCRFPEEEEGGCELRVKFSRSADAPAYQQGQNQLYNELNLGRREEYDVLDKRRGRDPEMGGKPRRKNPQEGLYNELQKDKMAEAYSEIGMKGERRRGKGHDGLYQGLSTATKDTYDALHMQALPPR
# Biological target: human glypican-3 (GPC3) on the cell surface (human), P51654
# Experiment: cell-based or functional assay
binder,measurement,value
B1,lytic activity against Hep3B cells at E:T ratio of 5 (HCC patient-derived T cells),30 to 70%
same,"lytic activity against Hep3B cells at E:T ratio of 5 (HCC patient-derived T cells), average",50%
same,"lytic activity against Hep3B cells at E:T ratio of 5 (healthy donor-derived T cells), average",90%

# Source: US20210371542A1
